Assay results as given in patent publication US20220154204.

Biological target: T1, GST-OST1/SnRK2.6, Q940H6
T1 chain: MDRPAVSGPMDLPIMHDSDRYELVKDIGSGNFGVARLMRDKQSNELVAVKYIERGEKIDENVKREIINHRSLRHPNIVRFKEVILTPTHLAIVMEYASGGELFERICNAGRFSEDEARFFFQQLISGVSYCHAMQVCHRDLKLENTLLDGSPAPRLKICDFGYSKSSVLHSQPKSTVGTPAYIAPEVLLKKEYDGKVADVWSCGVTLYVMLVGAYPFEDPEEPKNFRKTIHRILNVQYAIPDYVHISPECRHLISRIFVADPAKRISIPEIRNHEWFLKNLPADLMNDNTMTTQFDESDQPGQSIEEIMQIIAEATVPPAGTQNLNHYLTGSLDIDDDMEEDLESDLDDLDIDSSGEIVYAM

B1: MPK12 (protein)
chain: MSGESSSGSTEHCIKVVPTHGGRYVQYNVYGQLFEVSRKYVPPIRPIGRGACGIVCAAVNSVTGEKVAIKKIGNAFDNIIDAKRTLREIKLLRHMDHENVITIKDIVRPPQRDIFNDVYIVYELMDTDLQRILRSNQTLTSDQCRFLVYQLLRGLKYVHSANILHRDLRPSNVLLNSKNELKIGDFGLARTTSDTDFMTEYVVTRWYRAPELLLNCSEYTAAIDIWSVGCILGEIMTGQPLFPGKDYVHQLRLITELVGSPDNSSLGFLRSDNARRYVRQLPRYPKQQFAARFPKMPTTAIDLLERMLVFDPNRRISVDEALGHAYLSPHHDVAKEPVCSTPFSFDFEHPSCTEEHIKELIYKESVKFNPDH
in vitro phosphorylation assay with 32P-ATP after dephosphorylation of OST1: did not phosphorylate OST1/SnRK2.6 after dephosphorylation
